In IntAct's records for PubMed 25910212:

B1: Acetylcholine receptor subunit gamma (Homo sapiens), P07510-2 (parent)
chain: MHGGQGPLLLLLLLAVCLGAQGRNQEERLLADLMQNYDPNLRPAERDSDVVNVSLKLTLTNLISLNEREEALTTNVWIEMQWCDYRLRWDPRDYEGLWVLRVPSTMVWRPDIVLENKSQTYSTNEIDLQLSQEDGQTIEWIFIDPEAFTENGEWAIQHRPAKMLLDPAAPAQEAGHQKVVFYLLIQRKPLFYVINIIAPCVLISSVAILIHFLPAKAGGQKCTVAINVLLAQTVFLFLVAKKVPETSQAVPLISKYLTFLLVVTILIVVNAVVVLNVSLRSPHTHSMARGVRKVFLRLLPQLLRMHVRPLAPAAVQDTQSRLQNGSSGWSITTGEEVALCLPRSELLFQQWQRQGLVAAALEKLEKGPELGLSQFCGSLKQAAPAIQACVEACNLIACARHQQSHFDNGNEEWFLVGRVLDRVCFLAMLSLFICGTAGIFLMAHYNRVPALPFPGDPRPYLPSPD
partner: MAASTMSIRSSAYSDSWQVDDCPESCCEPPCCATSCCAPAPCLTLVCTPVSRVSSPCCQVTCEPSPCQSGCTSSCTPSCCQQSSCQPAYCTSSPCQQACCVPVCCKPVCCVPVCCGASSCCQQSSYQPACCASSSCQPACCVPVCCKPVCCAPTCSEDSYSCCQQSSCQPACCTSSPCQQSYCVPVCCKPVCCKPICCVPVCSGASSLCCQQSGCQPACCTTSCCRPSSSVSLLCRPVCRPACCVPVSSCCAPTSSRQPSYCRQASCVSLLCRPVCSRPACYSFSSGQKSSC
B2: Probetacellulin (Homo sapiens), P35070 (parent)
chain: MDRAARCSGASSLPLLLALALGLVILHCVVADGNSTRSPETNGLLCGDPEENCAATTTQSKRKGHFSRCPKQYKHYCIKGRCRFVVAEQTPSCVCDEGYIGARCERVDLFYLRGDRGQILVICLIAVMVVFIILVIGVCTCCHPLRKRRKRKKKEEEMETLGKDITPINEDIEETNIA
B3: Zinc finger protein 41 (Homo sapiens), P51814-6 (parent)
chain: MAANGDSPPWSPALAAEGRGSSCEASVSFEDVTVDFSKEEWQHLDPAQRRLYWDVTLENYSHLLSVGYQIPKSEAAFKLEQGEGPWMLEGEAPHQSCSGEAIGKMQQQGIPGGIFFHCERFDQPIGEDSLCSILEELWQDNDQLEQRQENQNNLLSHVKVLIKERGYEHKNIEKIIHVTTKLVPSIKRLHNCDTILKHTLNSHNHNRNSATKNLGKIFGNGNNFPHSPSSTKNENAKTGANSCEHDHYEKHLSHKQAPTHHQKIHPEEKLYVCTECVMGFTQKSHLFEHQRIHAGEKSRECDKSNKVFPQKPQVDVHPSVYTGEKPYLCTQCGKVFTLKSNLITHQKIHTGQKPYKCSECGKAFFQRSDLFRHLRIHTGEKPYECSECGKGFSQNSDLSIHQKTHTGEKHYECNECGKAFTRKSALRMHQRIHTGEKPYVCADCGKAFIQKSHFNTHQRIHTGEKPYECSDCGKSFTKKSQLHVHQRIHTGEKPYICTECGKVFTHRTNLTTHQKTHTGEKPYMCAECGKAFTDQSNLIKHQKTHTGEKPYKCNGCGKAFIWKSRLKIHQKSHIGERHYECKDCGKAFIQKSTLSVHQRIHTGEKPYVCPECGKAFIQKSHFIAHHRIHTGEKPYECSDCGKCFTKKSQLRVHQKIHTGEKPNICAECGKAFTDRSNLITHQKIHTREKPYECGDCGKTFTWKSRLNIHQKSHTGERHYECSKCGKAFIQKATLSMHQIIHTGKKPYACTECQKAFTDRSNLIKHQKMHSGEKRYKASD
B4: Carbonic anhydrase-related protein (Homo sapiens), P35219 (parent)
chain: MADLSFIEDTVAFPEKEEDEEEEEEGVEWGYEEGVEWGLVFPDANGEYQSPINLNSREARYDPSLLDVRLSPNYVVCRDCEVTNDGHTIQVILKSKSVLSGGPLPQGHEFELYEVRFHWGRENQRGSEHTVNFKAFPMELHLIHWNSTLFGSIDEAVGKPHGIAIIALFVQIGKEHVGLKAVTEILQDIQYKGKSKTIPCFNPNTLLPDPLLRDYWVYEGSLTIPPCSEGVTWILFRYPLTISQLQIEEFRRLRTHVKGAELVEGCDGILGDNFRPTQPLSDRVIRAAFQ
partner: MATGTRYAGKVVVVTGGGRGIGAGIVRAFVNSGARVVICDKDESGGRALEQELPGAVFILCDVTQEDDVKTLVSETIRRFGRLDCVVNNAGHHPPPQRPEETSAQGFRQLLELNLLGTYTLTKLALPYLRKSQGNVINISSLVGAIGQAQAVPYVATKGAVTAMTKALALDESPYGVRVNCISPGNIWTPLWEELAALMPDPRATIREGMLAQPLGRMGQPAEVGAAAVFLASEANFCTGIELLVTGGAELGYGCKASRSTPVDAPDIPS
B5: DNA repair protein XRCC4 (Homo sapiens), Q13426 (parent)
chain: MERKISRIHLVSEPSITHFLQVSWEKTLESGFVITLTDGHSAWTGTVSESEISQEADDMAMEKGKYVGELRKALLSGAGPADVYTFNFSKESCYFFFEKNLKDVSFRLGSFNLEKVENPAEVIRELICYCLDTIAENQAKNEHLQKENERLLRDWNDVQGRFEKCVSAKEALETDLYKRFILVLNEKKTKIRSLHNKLLNAAQEREKDIKQEGETAICSEMTADRDPVYDESTDEESENQTDLSGLASAAVSKDDSIISSLDVTDIAPSRKRRQRMQRNLGTEPKMAPQENQLQEKENSRPDSSLPETSKKEHISAENMSLETLRNSSPEDLFDEI
B6: Carbonyl reductase [NADPH] 3 (Homo sapiens), O75828 (parent)
chain: MSSCSRVALVTGANRGIGLAIARELCRQFSGDVVLTARDVARGQAAVQQLQAEGLSPRFHQLDIDDLQSIRALRDFLRKEYGGLNVLVNNAAVAFKSDDPMPFDIKAEMTLKTNFFATRNMCNELLPIMKPHGRVVNISSLQCLRAFENCSEDLQERFHSETLTEGDLVDLMKKFVEDTKNEVHEREGWPNSPYGVSKLGVTVLSRILARRLDEKRKADRILVNACCPGPVKTDMDGKDSIRTVEEGAETPVYLALLPPDATEPQGQLVHDKVVQNW
B7: U4/U6 small nuclear ribonucleoprotein Prp31 (Homo sapiens), Q8WWY3 (parent)
chain: MSLADELLADLEEAAEEEEGGSYGEEEEEPAIEDVQEETQLDLSGDSVKTIAKLWDSKMFAEIMMKIEEYISKQAKASEVMGPVEAAPEYRVIVDANNLTVEIENELNIIHKFIRDKYSKRFPELESLVPNALDYIRTVKELGNSLDKCKNNENLQQILTNATIMVVSVTASTTQGQQLSEEELERLEEACDMALELNASKHRIYEYVESRMSFIAPNLSIIIGASTAAKIMGVAGGLTNLSKMPACNIMLLGAQRKTLSGFSSTSVLPHTGYIYHSDIVQSLPPDLRRKAARLVAAKCTLAARVDSFHESTEGKVGYELKDEIERKFDKWQEPPPVKQVKPLPAPLDGQRKKRGGRRYRKMKERLGLTEIRKQANRMSFGEIEEDAYQEDLGFSLGHLGKSGSGRVRQTQVNEATKARISKTLQRTLQKQSVVYGGKSTIRDRSSGTASSVAFTPLQGLEIVNPQAAEKKVAEANQKYFSSMAEFLKVKGEKSGLMST
partner: B1 partner

Variants of: B1
Conditions: with kr109_human KRTAP10-9, P60411

effect of a mutation on the interaction	Variant
disrupting interaction strength	R86C
disrupting interaction strength	V107G

Variants of: B2
Conditions: with sgta_human SGTA

effect of a mutation on the interaction	Variant
with no effect	C7G

Variants of: B3
Conditions: with fam9b_human FAM9B

effect of a mutation on the interaction	Variant
with no effect	I125R
with no effect	C301R
disrupting interaction strength	P111L

Variants of: B4
Conditions: with dhb14_human HSD17B14, Q9BPX1

effect of a mutation on the interaction	Variant
disrupting interaction strength	S100P

Variants of: B5
Conditions: with XRCC4, Q13426-3

effect of a mutation on the interaction	Variant
with no effect	I134T

Variants of: B6
Conditions: with sdcb1_human SDCBP

effect of a mutation on the interaction	Variant
disrupting interaction strength	V244M

Variants of: B7
Conditions: with kr109_human KRTAP10-9, P60411

effect of a mutation on the interaction	Variant
with no effect	L107V
